Results: patent US20080254507A1

Biological target: envelope glycoprotein derived from T-tropic HIV-1 (gp120, gp41) (HIV-1 (T-tropic))
Test: cell-based or functional assay

“His-tagged actinohivin dimer fusion protein (from UniProt Q9KWN0 47-160)” was tested, and the concentration that inhibit 50% of syncytium formation (IC50) was 0.235.

“His-tagged actinohivin monomer fusion protein (from UniProt Q9KWN0 47-160)” gave a concentration that inhibit 50% of syncytium formation (IC50) of 0.58.
